Key:
[1] = biological target: T1, Recombinant DR3-Fc (R&D Systems, cat. #943-D3) (UniProt Q93038 25-199, limits assumed); test: ELISA, DR3-Fc immobilized
T1 construct: dimeric MW~92 kDa; also called DR3 receptor; Fc-DR3; not shown: Fc part of the bought fusion
T1 sequence (looked up): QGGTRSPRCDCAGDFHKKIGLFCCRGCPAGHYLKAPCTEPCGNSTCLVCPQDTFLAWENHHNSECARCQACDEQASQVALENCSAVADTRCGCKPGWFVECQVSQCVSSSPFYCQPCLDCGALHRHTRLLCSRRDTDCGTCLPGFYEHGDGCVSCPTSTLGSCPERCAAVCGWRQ
Method: All ELISA-based measurements were collected in triplicate, and error values report the standard error between measurements. Recombinant DR3-Fc (R&D Systems, cat. #943-D3), dimeric MW˜92 kDa, was non-specifically immobilized onto plates (Nunc maxisorp, cat. #436110) in 100 μL DR3-Fc, diluted to 10 μg/mL onto a 96-well White Maxisorp plate (Nunc, cat #436110) (O/N, 4° C.). Plates were block for 1 hour at room temperature with 250 μl/well of casein buffer and blocking buffer was removed. 50 μL of TL1A variants were diluted in StartingBlock PBS (Thermo Fisher Scientific), at 25 μg/mL, diluting 3× over each well, according to the plate map description for 20160623) per well on a 96-well White Maxisorp plate (Nunc, cat #: 436110) (overnight at 4° C.).
Plates were washed three times with TBST. 100 μl/well polyclonal rabbit anti-human TL1A-biotin antibody (diluted 1:1000 in Starting Block PBS) was added and plates were incubated for 1 hour at room temperature with shaking at 150 rpm. TL1A-biotin antibody was removed and 100 μl/well streptavidin-HRP conjugate (diluted 1:10,000 in Starting Block PBS) was added to plates. Plates were incubated for 1 hour at room temperature with shaking at 150 rpm. Plates were washed three times with TBST. 100 μl/well POD Chemiluminescence substrate (Roche, cat #: 11582950001) was added immediately prior to reading plate luminescence using a Molecular Devices M5 plate reader with a delay setting of 100 ms.
Variants of TL1A were generated and tested for binding to DR3 and DcR3 by ELISA as described.

DcR3 = biological target: T2, DcR3 (UniProt O95407 30-300, limits assumed); test: ELISA, DcR3
T2 construct: the construct is not described; also called decoy receptor DcR3; TNFRSF6B
T2 sequence (looked up): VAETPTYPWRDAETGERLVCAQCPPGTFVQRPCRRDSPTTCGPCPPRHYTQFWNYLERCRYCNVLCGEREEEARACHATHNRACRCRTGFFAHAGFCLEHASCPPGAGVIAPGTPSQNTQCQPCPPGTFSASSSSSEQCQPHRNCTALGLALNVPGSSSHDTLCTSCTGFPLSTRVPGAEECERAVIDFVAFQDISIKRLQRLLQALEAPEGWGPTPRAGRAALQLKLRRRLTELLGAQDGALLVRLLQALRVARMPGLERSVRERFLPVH

Binder	EC50 [1]	Rel EC50 [1]	EC50 (DcR3)	Rel EC50 (DcR3)
TL1W25 (His-TEV-hTL1A 72-251 N207A) (ligand, also called TL1W25 (N207A)) HHHHHHENLYFQGLKGQEFAPSHQQVYAPLRADGDKPRAHLTVVRQTPTQHFKNQFPALHWEHELGLAFTKNRMNYTNKFLLIPESGDYFIYSQVTFRGMTSECSEIRQAGRPNKPDSITVVITKVTDSYPEPTQLLMGTKSVCEVGSAWFQPIYLGAMFSLQEGDKLMVNVSDISLVDYTKEDKTFFGAFLL	13.4 nM	0.5 ratio (head: nM)	3.7 nM	0.8 ratio (head: nM)
TL1W39 (His-TEV-TL1A L123G) (ligand, also called TL1W39 (L123G)) HHHHHHENLYFQGLKGQEFAPSHQQVYAPLRADGDKPRAHLTVVRQTPTQHFKNQFPALHWEHEGGLAFTKNRMNYTNKFLLIPESGDYFIYSQVTFRGMTSECSEIRQAGRPNKPDSITVVITKVTDSYPEPTQLLMGTKSVCEVGSNWFQPIYLGAMFSLQEGDKLMVNVSDISLVDYTKEDKTFFGAFLL	184 nM	7 ratio (head: nM)	38.2 nM	8.3 ratio (head: nM)
TL1W30 (His-TEV-hTL1A 72-251 N112E) (ligand, also called TL1W30 (N112E)) HHHHHHENLYFQGLKGQEFAPSHQQVYAPLRADGDKPRAHLTVVRQTPTQHFKEQFPALHWEHELGLAFTKNRMNYTNKFLLIPESGDYFIYSQVTFRGMTSECSEIRQAGRPNKPDSITVVITKVTDSYPEPTQLLMGTKSVCEVGSNWFQPIYLGAMFSLQEGDKLMVNVSDISLVDYTKEDKTFFGAFLL	16.4 nM	0.6 ratio (head: nM)	4.7 nM	1 ratio (head: nM)
TL1W31 (GD: Single chain MMB in CBIS; His-TEV-hTL1A 72-251 R103Q) (ligand, also called TL1W31 (R103Q)) HHHHHHENLYFQGLKGQEFAPSHQQVYAPLRADGDKPRAHLTVVQQTPTQHFKNQFPALHWEHELGLAFTKNRMNYTNKFLLIPESGDYFIYSQVTFRGMTSECSEIRQAGRPNKPDSITVVITKVTDSYPEPTQLLMGTKSVCEVGSNWFQPIYLGAMFSLQEGDKLMVNVSDISLVDYTKEDKTFFGAFLL	9.5 nM	0.4 ratio (head: nM)	2.5 nM	0.5 ratio (head: nM)
TL1W28 (His-TEV-hTL1A 72-251 E190G) (ligand, also called TL1W28 (E190G)) HHHHHHENLYFQGLKGQEFAPSHQQVYAPLRADGDKPRAHLTVVRQTPTQHFKNQFPALHWEHELGLAFTKNRMNYTNKFLLIPESGDYFIYSQVTFRGMTSECSEIRQAGRPNKPDSITVVITKVTDSYPGPTQLLMGTKSVCEVGSNWFQPIYLGAMFSLQEGDKLMVNVSDISLVDYTKEDKTFFGAFLL	22.6 nM	0.9 ratio (head: nM)	5.7 nM	1.2 ratio (head: nM)
TL1W40 (His-TEV-TL1A L123S) (ligand, also called TL1W40 (L123S)) HHHHHHENLYFQGLKGQEFAPSHQQVYAPLRADGDKPRAHLTVVRQTPTQHFKNQFPALHWEHESGLAFTKNRMNYTNKFLLIPESGDYFIYSQVTFRGMTSECSEIRQAGRPNKPDSITVVITKVTDSYPEPTQLLMGTKSVCEVGSNWFQPIYLGAMFSLQEGDKLMVNVSDISLVDYTKEDKTFFGAFLL	30.7 nM	1.2 ratio (head: nM)	16.4 nM	3.6 ratio (head: nM)
TL1W32 (His-TEV-hTL1A 72-251 Y188A) (ligand, also called TL1W32 (Y188A)) HHHHHHENLYFQGLKGQEFAPSHQQVYAPLRADGDKPRAHLTVVRQTPTQHFKNQFPALHWEHELGLAFTKNRMNYTNKFLLIPESGDYFIYSQVTFRGMTSECSEIRQAGRPNKPDSITVVITKVTDSAPEPTQLLMGTKSVCEVGSNWFQPIYLGAMFSLQEGDKLMVNVSDISLVDYTKEDKTFFGAFLL	565 nM	21.6 ratio (head: nM)	7.6 nM	1.7 ratio (head: nM)
TL1W29 (His-TEV-hTL1A 72-251 P189A) (ligand, also called TL1W29 (P189A)) HHHHHHENLYFQGLKGQEFAPSHQQVYAPLRADGDKPRAHLTVVRQTPTQHFKNQFPALHWEHELGLAFTKNRMNYTNKFLLIPESGDYFIYSQVTFRGMTSECSEIRQAGRPNKPDSITVVITKVTDSYAEPTQLLMGTKSVCEVGSNWFQPIYLGAMFSLQEGDKLMVNVSDISLVDYTKEDKTFFGAFLL	710 nM	27.1 ratio (head: nM)	7.6 nM	1.7 ratio (head: nM)
TL1W42 (His-TEV-TL1A F114A) (ligand, also called TL1W42 (F114A)) HHHHHHENLYFQGLKGQEFAPSHQQVYAPLRADGDKPRAHLTVVRQTPTQHFKNQAPALHWEHELGLAFTKNRMNYTNKFLLIPESGDYFIYSQVTFRGMTSECSEIRQAGRPNKPDSITVVITKVTDSYPEPTQLLMGTKSVCEVGSNWFQPIYLGAMFSLQEGDKLMVNVSDISLVDYTKEDKTFFGAFLL	77.7 nM	3 ratio (head: nM)	11.4 nM	2.5 ratio (head: nM)
TL1W43 (His-TEV-TL1A Y188S) (ligand, also called TL1W43 (Y188S)) HHHHHHENLYFQGLKGQEFAPSHQQVYAPLRADGDKPRAHLTVVRQTPTQHFKNQFPALHWEHELGLAFTKNRMNYTNKFLLIPESGDYFIYSQVTFRGMTSECSEIRQAGRPNKPDSITVVITKVTDSSPEPTQLLMGTKSVCEVGSNWFQPIYLGAMFSLQEGDKLMVNVSDISLVDYTKEDKTFFGAFLL	207 nM	7.9 ratio (head: nM)	72.2 nM	15.7 ratio (head: nM)
TL1W33 (His-TEV-hTL1A 72-251 R103A) (ligand, also called TL1W33 (R103A)) HHHHHHENLYFQGLKGQEFAPSHQQVYAPLRADGDKPRAHLTVVAQTPTQHFKNQFPALHWEHELGLAFTKNRMNYTNKFLLIPESGDYFIYSQVTFRGMTSECSEIRQAGRPNKPDSITVVITKVTDSYPEPTQLLMGTKSVCEVGSNWFQPIYLGAMFSLQEGDKLMVNVSDISLVDYTKEDKTFFGAFLL	25 nM	1 ratio (head: nM)	3.3 nM	0.7 ratio (head: nM)
TL1W47 (His-TEV-TL1A E241A) (ligand, also called TL1W47 (E241A)) HHHHHHENLYFQGLKGQEFAPSHQQVYAPLRADGDKPRAHLTVVRQTPTQHFKNQFPALHWEHELGLAFTKNRMNYTNKFLLIPESGDYFIYSQVTFRGMTSECSEIRQAGRPNKPDSITVVITKVTDSYPEPTQLLMGTKSVCEVGSNWFQPIYLGAMFSLQEGDKLMVNVSDISLVDYTKADKTFFGAFLL	260 nM	9.9 ratio (head: nM)	1310 nM	285 ratio (head: nM)
TL1W44 (His-TEV-TL1A P189K) (ligand, also called TL1W44 (P189K)) HHHHHHENLYFQGLKGQEFAPSHQQVYAPLRADGDKPRAHLTVVRQTPTQHFKNQFPALHWEHELGLAFTKNRMNYTNKFLLIPESGDYFIYSQVTFRGMTSECSEIRQAGRPNKPDSITVVITKVTDSYKEPTQLLMGTKSVCEVGSNWFQPIYLGAMFSLQEGDKLMVNVSDISLVDYTKEDKTFFGAFLL	168 nM	6.4 ratio (head: nM)	59.1 nM	12.8 ratio (head: nM)
TL1W41 (His-TEV-TL1A E120A) (ligand, also called TL1W41 (E120A)) HHHHHHENLYFQGLKGQEFAPSHQQVYAPLRADGDKPRAHLTVVRQTPTQHFKNQFPALHWAHELGLAFTKNRMNYTNKFLLIPESGDYFIYSQVTFRGMTSECSEIRQAGRPNKPDSITVVITKVTDSYPEPTQLLMGTKSVCEVGSNWFQPIYLGAMFSLQEGDKLMVNVSDISLVDYTKEDKTFFGAFLL	100 nM	3.8 ratio (head: nM)	32.6 nM	7.1 ratio (head: nM)
TL1W37 (His-TEV-TL1A L123E) (ligand, also called TL1W37 (L123E)) HHHHHHENLYFQGLKGQEFAPSHQQVYAPLRADGDKPRAHLTVVRQTPTQHFKNQFPALHWEHEEGLAFTKNRMNYTNKFLLIPESGDYFIYSQVTFRGMTSECSEIRQAGRPNKPDSITVVITKVTDSYPEPTQLLMGTKSVCEVGSNWFQPIYLGAMFSLQEGDKLMVNVSDISLVDYTKEDKTFFGAFLL	423 nM	16.1 ratio (head: nM)	24.3 nM	5.3 ratio (head: nM)

Source: patent US20220056104A1 (Janssen / Centocor, published 2022)
